Source: PMC3706991

What was measured:
[1] = target: CD27 (human (endogenous in CD4+ T cells of blood donors)) (UniProt P26842)
[2] = target: CD27 (human (endogenous in CD4+ T cells of blood donors)) (UniProt P26842); remark: listed apart in the source

Chain of UniProt P26842 (P26842 20-260): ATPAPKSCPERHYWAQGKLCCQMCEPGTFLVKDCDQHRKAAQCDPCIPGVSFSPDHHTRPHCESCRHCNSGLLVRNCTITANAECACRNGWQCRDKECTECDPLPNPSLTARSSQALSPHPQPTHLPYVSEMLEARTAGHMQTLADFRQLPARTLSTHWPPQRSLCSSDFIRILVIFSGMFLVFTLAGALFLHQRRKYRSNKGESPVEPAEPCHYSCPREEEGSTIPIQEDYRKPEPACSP

B1: CD70 (ligand)
chain: MPEEGSGCSVRRRPYGCVLRAALVPLVAGLVICLVVCIQRFAQAQQQLPLESLGWDVAELQLNHTGPQQDPRLYWQGGPALGRSFLHGPELDKGQLRIHRDGIYMVHIQVTLAICSSTTASRHHPTTLAVGICSPASRSISLLRLSFHQGCTIASQRLTPLARGDTLCTNLTGTLLPSRNTDETFFGVQWVRP
50%: HB1.F3 (NSC)-mediated apoptosis of CD4+ T cells (Annexin V/PI, FACS) in co-culture with anti-CD27 blocking mAb (LG.7F9), 0-1 ug/ml [1] | HB1.F3 (NSC)-mediated apoptosis of CD4+ T cells (Annexin V/PI, FACS) in co-culture with anti-CD70 blocking mAb (BU69), 0-1 ug/ml [1] | decrease in FasL expression level on CD4+ T cells (FACS) in co-culture with HB1.F3 after addition of anti-CD27 mAb [2]
